According to patent US20110191903A1, “ENGINEERING PLANT RESISTANCE TO DISEASES CAUSED BY PATHOGENS” (Pioneer Hi-Bred International, Inc., priority 2009, published 2011):

Substrate: O=C(O)C(=O)O
Assay: Oxalate oxidase kinetics, coupled horse radish peroxidase assay, OXOX-G
Assay type: biochemical, Ceriporiopsis subvermispora
Description: Sequences of both OXOX C and G alleles were published by Escutia et al., 2005 and were deposited with EMBL: OXOX-C partial genomic DNA, Acession No. AJ746414; OXOX-C partial cDNA, Acession No. AJ563659; OXOX-G genomic DNA, Acession No. AJ563660; OXOX-G cDNA, Acession No. AJ746412. See also, Escutia et al., Cloning and sequencing of two Ceriporiopsis subvermispora bicupin oxalate oxidase allelic isoforms: implications for the reaction specificity of oxalate oxidases and decarboxylases. (2005). Based on published sequence, mature proteins of OXOX C (SEQ ID NO: 21) and G (SEQ ID NO: 22) were synthesized and fused to N-terminal barley alpha amylase signal sequence (BAA ss; SEQ ID NO:3). The fungal OXOX coding sequence was synthesized with codon usage suitable for expression in soybean (FIG. 1A) and E. coli (FIG. 1B).
The E. coli expression system was based on the published protocol of Escutia et al. Escutia et al., Cloning and sequencing of two Ceriporiopsis subvermispora bicupin oxalate oxidase allelic isoforms: implications for the reaction specificity of oxalate oxidases and decarboxylases. (2005). The coding sequence for the mature OXOX enzyme was inserted in E. coli expression vector pET32 (Invitrogen) to include a 6× histidine tag at the C-terminus. The resulting expression plasmid was transformed into E. coli strain BL21Star pLysS (Invitrogen).
E. coli cultures were grown at 37° C. At optical density 0.4, arabinose was added to a concentration or 0.4%. After another hour of growth at 37° C., MnCl2 was added to 5 mM and IPTG to 1 mM. Cultures were then grown at 25° C. for 16 hours. Cells were harvested by centrifugation at 4000 rpm for 10 min. The supernatant was discarded and cell pellets were kept at −80° C. for at least one hour. Pellets were resuspended in total 40 ml of lysis buffer with 50 mM phosphate buffer pH7, 2 mg/ml protease inhibitor (sigma P-8465), 100 mM KCL, 1/1000 lysozyme, 1/2000 endonuclease, and incubated at 37° C. with shaking for one hour, followed by sonication. Cellular debris was removed by centrifugation and the clarified supernatant was poured into a new tube. Nickel resin (Qiagen) was added. After a short period of incubation, the slurry was poured onto a column and washed with buffer. Purified OXOX protein was eluted from the resin in 50 mM succinate pH 5, 100 mM KCl. The E. coli expression procedure was scalable allowing large scale protein production for kinetic analysis as well as small scale production for high throughput screening of libraries.
Oxalate oxidase enzymatic activity was determined in a coupled reaction. Oxalate oxidase converts oxalic acid to carbon dioxide and hydrogen peroxide. In the presence of horse radish peroxidase, hydrogen peroxide reacts with 3-methyl-2-benzothiazolinone hydrazone (MBTH) and N,N-dimethylaniline (DMA) to form indamine dye, which can be detected spectrophotmetrically or colorimetrically as described by Laker, M. F., Hoffman, A. F., and Meeuse, J. D. (1980) Clinical Chemistry 26, 827-830. The coupled reaction was used for characterization of oxalate oxidase kinetic properties as well as in a screening procedure to identify oxalate oxidase variants with improved enzymatic properties.
More modest improvements in Km and Kcat were observed under lower pH conditions. Coupled reaction was preformed as described in Example 3. Enzyme kinetic parameters were determined by standard methods as described in Segel (1976) Biochemical calculations, 2nd Edition. John Wiley & Sons, London, New York, Sydney, Toronto.

B1: Ceriporiopsis subvermispora oxalate oxidase OXOX-G, SEQ ID NO: 19 (Gelatoporia subvermispora) (protein)
chain: RPTGNDVFYLPRAVAVSSAGASSPASLSSGTESSSAAEPTETVPFASDDPNPRLWNIDTQDLSVVAPERGPLGAKIIGPDNLPLDIQNADTLAPPTTDSGSIPNAKWPFALSHNTLYTGGWVRIQNNEVLPIAKAMAGVNMRLEAGTIRELHWHNTPEWAYILKGTTQITAVDENGKNYLANVGPGDLWYFPEGMPHSLQGTNASDEGSEFLLIFPDGTFDASNQFMITDWLAHTPKDVIAKNFGVDISEFDRLPSHDLYIFPGVAPPLDATAPEDPQGTIPLPYSFEFSKVVPTQYAGGTVKIADTRTFPISKTISVAEITVEPGAMRELHWHPTEDEWTFFIEGQARVTLFAGESNAQTYDYQGGDIAYIPTAYGHYVENSGNTTLRFLEIFNSPLFQDVSLTQWLANTPRAIVKATLQLSDNVIDSLNKSKAFVVASD
Km (other: pH 3.8, pH 3.8): 0.40 mM
kcat (other: pH 3.8, pH 3.8): 4.80 s⁻¹
Km (other: pH 4.8, pH 4.8): 1.37 mM
kcat (other: pH 4.8, pH 4.8): 2.56 s⁻¹
Km (other: pH 5.8, pH 5.8): 6.14 mM
kcat (other: pH 5.8, pH 5.8): 0.82 s⁻¹
